# Measurements as given in patent US20230416343A1 (SORRENTO THERAPEUTICS, published 2023).
# “And” between values parts separate entries of the source, which are not always exact repeats. Equal values may be shown once. Read-outs that look alike come from different tables or passages of the source.
# B1: S1D7270LALA antibody (STI-2020) (antibody, V domains shown)
# VH: EVQLVESGGGLIQPGGSLRLSCAASGFTVSSNYMSWVRQAPGKGLEWVSIIYPGGSTEYADSVKGRFTISRDNSRNTLYLQMNSLRAEDTAVYYCARELGYYGMDVWGQGTTVTVSS
# VL: DIQMTQSPSSVSASVGDRVTITCRASQGISTWLVWYQQKPGKAPNLLIYGASSLQSGVPSRFSGSGSGTDFTLTISSLQPEDFATYYCQQANAYPYTFGQGTKLEIK
# Assays:
# [1] = biological target: SARS-CoV-2 variant spike protein triple mutant K417N, E484K, and N501Y on HEK293 cells (SARS-CoV-2, UniProt P0DTC2 14-1273)
# [2] = biological target: SARS-CoV-2 variant spike protein E484K on HEK293 cells (SARS-CoV-2, UniProt P0DTC2 14-1273)
# [3] = biological target: SARS-CoV-2 variant spike protein S494P on HEK293 cells (SARS-CoV-2, UniProt P0DTC2 14-1273)
# [4] = biological target: T1, SARS-CoV-2 D614G mutant spike protein expressed on HEK293 cells (SARS-CoV-2, UniProt P0DTC2 14-1273)
# [5] = biological target: SARS-CoV-2 variant spike protein F490S on HEK293 cells (SARS-CoV-2, UniProt P0DTC2 14-1273)
# [6] = biological target: SARS-CoV-2 spike protein expressed on HEK293 cells (SARS-CoV-2, UniProt P0DTC2 14-1273)
# [7] = biological target: T1, SARS-CoV-2 D614G mutant spike protein …; remark: listed apart in the source
# [8] = biological target: S protein of live SARS-CoV-2 strain 2020001 (spike protein having the D614G mutation) (SARS-CoV-2, UniProt P0DTC2 14-1273); assay: cell-based or functional assay
# [9] = biological target: S protein of live SARS-CoV-2 Alpha variant virus (SARS-CoV-2, UniProt P0DTC2 14-1273); assay: cell-based or functional assay
binder,measurement,setting,value
B1,EC50,[1],> 10000 µg/mL
same,EC50,[2],140 µg/mL
same,EC50,[3],131 µg/mL
same,EC50,[4],130 µg/mL
same,EC50,[5],48 µg/mL
same,EC50,[6],0.12 µg/mL
same,EC50,[7],0.13 µg/mL
same,"IC50, inhibition of cytopathic effect (CPE) on Vero E6 cells, live virus",[8],0.055 µg/mL
same,"IC50, plaque reduction neutralization test on Vero E6 cells, live virus",[9],0.00908 µg/mL and 0.0164 µg/mL
